In paper PMC4980433 (Molecular Cell, 2016):

Key:
[1] = target: the molecule itself; assay: ultracentrifugation sedimentation assay; purified SAM domains (25 μM) centrifuged at an average 200,000 x g, 20°C, 1 hr; total, supernatant and pellet on SDS-PAGE with Coomassie staining; polymers partition into the pellet; proteins of Figure 5A affinity purified
TNKS SAM Y1073A, O95271 = target: T1, TNKS SAM Y1073A, O95271; assay: ITC; details: chain shown with the change; N = 0.72±0.01
T1 chain: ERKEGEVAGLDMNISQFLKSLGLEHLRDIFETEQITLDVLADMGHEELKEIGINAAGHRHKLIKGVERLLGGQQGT

TNKS SAM Y1073A = TNKS SAM Y1073A (human, UniProt O95271 1018-1093, Y1073A^T1); assay: ITC
[2] = target: the molecule itself; assay: crystal structure; SAM domain mutants crystallized; head-to-tail (EH-ML) filaments in the crystals; molecular replacement

B1: TNKS2 SAM domain (867-940), wild type (domain or fragment, human, UniProt Q9H2K2 867-940, looked up)
chain: EKKEVPGVDFSITQFVRNLGLEHLMDIFEREQITLDVLVEMGHKELKEIGINAYGHRHKLIKGVERLISGQQGL
notes: SAM domain of human Tankyrase 2 (TNKS2, ARTD6), residues 867-940; Forms polydisperse polymers (filaments); theoretical MW about 9 kDa; also called TNKS2 WT
[1]
  binding result: binds

B2: TNKS SAM V1056W (domain or fragment)
chain: ERKEGEVAGLDMNISQFLKSLGLEHLRDIFETEQITLDWLADMGHEELKEIGINAYGHRHKLIKGVERLLGGQQGT
TNKS SAM Y1073A, O95271
  Kd: 0.82 µM
  other: ΔH: -25.1 kJ/mol
  other: ΔS: 7.7 cal/mol/deg
TNKS SAM Y1073A
  Kd: 0.86 µM

B3: TNKS SAM D1055R (domain or fragment, human, UniProt O95271 1018-1093, looked up)
chain: ERKEGEVAGLDMNISQFLKSLGLEHLRDIFETEQITLRVLADMGHEELKEIGINAYGHRHKLIKGVERLLGGQQGT
notes: SAM domain of human Tankyrase (TNKS), residues 1018-1093, with D1055R; Polymer-breaking mutant used for crystallization (two crystal forms); also called TNKS D1055R^T1 SAM domain
[2]
  binding result: binds
